# T1: AP4E1 (human, UniProt Q9UPM8 1-1137, limits assumed)
# T1 sequence (looked up): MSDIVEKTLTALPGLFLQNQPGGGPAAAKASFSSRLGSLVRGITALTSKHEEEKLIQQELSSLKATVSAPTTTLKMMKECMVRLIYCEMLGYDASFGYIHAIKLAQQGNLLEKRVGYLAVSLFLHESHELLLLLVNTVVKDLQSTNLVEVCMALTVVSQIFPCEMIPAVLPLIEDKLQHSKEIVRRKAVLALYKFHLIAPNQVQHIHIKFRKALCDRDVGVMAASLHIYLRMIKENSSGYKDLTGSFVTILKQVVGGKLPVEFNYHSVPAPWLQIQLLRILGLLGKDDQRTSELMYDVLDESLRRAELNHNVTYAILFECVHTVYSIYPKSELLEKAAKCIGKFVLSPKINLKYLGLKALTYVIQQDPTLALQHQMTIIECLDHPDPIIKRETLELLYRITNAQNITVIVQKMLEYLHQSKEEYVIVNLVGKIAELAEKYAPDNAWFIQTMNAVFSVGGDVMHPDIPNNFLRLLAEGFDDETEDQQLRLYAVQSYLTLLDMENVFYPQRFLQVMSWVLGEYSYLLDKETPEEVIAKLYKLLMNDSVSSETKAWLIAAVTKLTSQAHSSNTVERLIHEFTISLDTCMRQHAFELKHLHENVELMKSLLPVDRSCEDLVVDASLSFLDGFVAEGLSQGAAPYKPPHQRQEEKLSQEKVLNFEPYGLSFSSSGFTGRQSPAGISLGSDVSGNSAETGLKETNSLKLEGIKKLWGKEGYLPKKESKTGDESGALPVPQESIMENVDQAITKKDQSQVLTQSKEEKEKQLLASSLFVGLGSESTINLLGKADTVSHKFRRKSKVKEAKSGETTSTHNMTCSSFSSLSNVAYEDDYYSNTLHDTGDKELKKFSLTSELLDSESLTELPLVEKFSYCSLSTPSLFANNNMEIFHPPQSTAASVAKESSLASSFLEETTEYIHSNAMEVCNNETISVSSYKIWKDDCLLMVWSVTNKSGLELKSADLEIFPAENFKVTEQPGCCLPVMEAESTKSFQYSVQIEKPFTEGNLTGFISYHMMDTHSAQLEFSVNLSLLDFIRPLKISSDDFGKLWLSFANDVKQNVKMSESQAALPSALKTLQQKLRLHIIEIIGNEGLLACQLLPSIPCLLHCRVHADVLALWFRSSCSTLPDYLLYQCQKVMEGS
# T2: AMBRA1 (human, UniProt Q9C0C7 1-1298, limits assumed)
# T2 sequence (looked up): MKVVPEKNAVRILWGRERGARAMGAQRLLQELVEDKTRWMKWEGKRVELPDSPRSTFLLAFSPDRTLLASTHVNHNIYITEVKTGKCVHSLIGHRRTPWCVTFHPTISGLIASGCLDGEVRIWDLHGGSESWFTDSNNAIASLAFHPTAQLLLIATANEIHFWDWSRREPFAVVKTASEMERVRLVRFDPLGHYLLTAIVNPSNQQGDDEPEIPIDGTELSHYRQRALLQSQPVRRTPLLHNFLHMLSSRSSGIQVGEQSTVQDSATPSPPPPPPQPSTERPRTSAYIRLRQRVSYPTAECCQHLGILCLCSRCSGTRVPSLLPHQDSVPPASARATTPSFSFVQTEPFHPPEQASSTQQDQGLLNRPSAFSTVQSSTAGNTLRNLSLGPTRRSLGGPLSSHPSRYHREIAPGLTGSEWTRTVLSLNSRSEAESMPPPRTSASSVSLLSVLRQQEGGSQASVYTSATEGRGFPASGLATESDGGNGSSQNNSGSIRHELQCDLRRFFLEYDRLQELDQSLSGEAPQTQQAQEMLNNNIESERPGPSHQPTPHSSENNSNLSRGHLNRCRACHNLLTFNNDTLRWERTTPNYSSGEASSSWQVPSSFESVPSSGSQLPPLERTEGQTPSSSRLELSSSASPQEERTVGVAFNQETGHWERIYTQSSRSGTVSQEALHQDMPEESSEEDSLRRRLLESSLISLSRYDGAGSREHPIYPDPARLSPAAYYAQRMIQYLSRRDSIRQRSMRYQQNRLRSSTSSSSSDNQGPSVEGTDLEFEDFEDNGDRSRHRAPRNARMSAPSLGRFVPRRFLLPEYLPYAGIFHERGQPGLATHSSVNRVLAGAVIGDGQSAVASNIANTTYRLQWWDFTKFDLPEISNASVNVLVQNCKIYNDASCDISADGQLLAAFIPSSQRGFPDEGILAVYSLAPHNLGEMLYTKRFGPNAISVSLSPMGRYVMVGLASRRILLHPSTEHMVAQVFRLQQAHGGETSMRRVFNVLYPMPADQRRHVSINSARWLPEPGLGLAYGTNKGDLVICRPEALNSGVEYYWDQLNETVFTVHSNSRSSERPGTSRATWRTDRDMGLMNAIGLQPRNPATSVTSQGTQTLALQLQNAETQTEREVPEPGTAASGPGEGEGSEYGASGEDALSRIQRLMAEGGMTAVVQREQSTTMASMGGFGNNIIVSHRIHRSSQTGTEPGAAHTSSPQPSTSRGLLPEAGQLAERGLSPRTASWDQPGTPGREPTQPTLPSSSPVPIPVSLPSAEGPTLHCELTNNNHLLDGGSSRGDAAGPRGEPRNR
# What was measured:
# AP4E1 = molecular target: T1, AP4E1; test: IP/MS, LZTR1 R810W-FLAG, U87
# Summary of the method: (§1)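 Extracted peptides in 3% acetonitrile/0.1% formic acid ran on a 50 cm C18 column into an Orbitrap Fusion, with MaxQuant identification and spectral counting.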
# AMBRA1 = molecular target: T2, AMBRA1; test: IP/MS, LZTR1 R810W-FLAG, U87
# Summary of the method: as §1
binder,measurement,setting,value
"LZTR1 R810W-FLAG (other, human, UniProt Q8N653 1-840, looked up, Stably expressed in U87 cells by lentivirus; also called LZTR1-FLAG-R810W; LZTR1 RW; not shown: FLAG tag) MAGPGSTGGQIGAAALAGGARSKVAPSVDFDHSCSDSVEYLTLNFGPFETVHRWRRLPPCDEFVGARRSKHTVVAYKDAIYVFGGDNGKTMLNDLLRFDVKDCSWCRAFTTGTPPAPRYHHSAVVYGSSMFVFGGYTGDIYSNSNLKNKNDLFEYKFATGQWTEWKIEGRLPVARSAHGATVYSDKLWIFAGYDGNARLNDMWTIGLQDRELTCWEEVAQSGEIPPSCCNFPVAVCRDKMFVFSGQSGAKITNNLFQFEFKDKTWTRIPTEHLLRGSPPPPQRRYGHTMVAFDRHLYVFGGAADNTLPNELHCYDVDFQTWEVVQPSSDSEVGGAEVPERACASEEVPTLTYEERVGFKKSRDVFGLDFGTTSAKQPTQPASELPSGRLFHAAAVISDAMYIFGGTVDNNIRSGEMYRFQFSCYPKCTLHEDYGRLWESRQFCDVEFVLGEKEECVQGHVAIVTARSRWLRRKITQARERLAQKLEQEAAPVPREAPGVAAGGARPPLLHVAIREAEARPFEVLMQFLYTDKIKYPRKGHVEDVLLIMDVYKLALSFQLCRLEQLCRQYIEASVDLQNVLVVCESAARLQLSQLKEHCLNFVVKESHFNQVIMMKEFERLSSPLIVEIVRRKQQPPPRTPLDQPVDIGTSLIQDMKAYLEGAGAEFCDITLLLDGHPRPAHKAILAARSSYFEAMFRSFMPEDGQVNISIGEMVPSRQAFESMLRYIYYGEVNMPPEDSLYLFAAPYYYGFYNNRLQAYCKQNLEMNVTVQNVLQILEAADKTQALDMKRHCLHIIVHQFTKVSKLPTLWSLSQQLLLDIIDSLASHISDKQCAELGADI",binding result,AP4E1,binds
same,binding result,AMBRA1,binds
